# Assay results published in article PMC9584538 (Cell reports, 2022).
# Values joined by “and” are separate entries in the source; they are usually repeats but may differ in a detail not shown here. Equal entries are not always repeated.
# Target: the molecule itself
protein,measurement,value
"_(PARL)Skd3^ΔL660-I707 (lacking the CTD) (enzyme, human, UniProt Q9H078 127-707, looked up) YSKSPSNKDAALLEAARANNMQEVSRLLSEGADVNAKHRLGWTALMVAAINRNNSVVQVLLAAGADPNLGDDFSSVYKTAKEQGIHSLEDGGQDGASRHITNQWTSALEFRRWLGLPAGVLITREDDFNNRLNNRASFKGCTALHYAVLADDYRTVKELLDGGANPLQRNEMGHTPLDYAREGEVMKLLRTSEAKYQEKQRKREAEERRRFPLEQRLKEHIIGQESAIATVGAAIRRKENGWYDEEHPLVFLFLGSSGIGKTELAKQTAKYMHKDAKKGFIRLDMSEFQERHEVAKFIGSPPGYVGHEEGGQLTKKLKQCPNAVVLFDEVDKAHPDVLTIMLQLFDEGRLTDGKGKTIDCKDAIFIMTSNVASDEIAQHALQLRQEALEMSRNRIAENLGDVQISDKITISKNFKENVIRPILKAHFRRDEFLGRINEIVYFLPFCHSELIQLVNKELNFWAKRAKQRHNITLLWDREVADVLVDGYNVHYGARSIKHEVERRVVNQLAAAYEQDLLPGGCTLRITVEDSDKQ",stoichiometry N,6 and 12
